For 2 substances, Kd and fold higher affinity than for the single domain (printed: ROCK1 alone) results are on record in paper PMC10626209.

Experiment [1] concerns the target GFP-tagged SHROOM2 ASD2 domain (mouse protein 1,178–1,488 aa) (mouse). Briefly: SPR. In general terms: Surface plasmon resonance follows binding to a sensor surface in real time, without labels.
Experiment [2] deals with preformed SHROOM2:ROCK1 complex (mouse | human) (UniProt Q13464). Briefly: SPR.

Substance “GST-tagged ROCK1 SBD domain (834–913 aa) (from UniProt Q13464 834-913) (domain or fragment)” yielded a Kd in experiment [1] of 1000 nM. This counts as single-digit micromolar.
The substance “GST-tagged SCRIB C-terminal fragment (1,478–1,630) (from UniProt Q14160 1478-1630) (domain or fragment)” came in with a Kd in experiment [1] of 960 nM. For the same substance, the fold higher affinity than for the single domain (printed: ROCK1 alone) in experiment [2] stood at 5 fold.

What is called Kd is the constant that tells how readily two partners part at equilibrium.
